# Assay results taken from the nanobody polyreactivity screen of Harvey et al. (2022).
# Assay: yeast display, Sf9 membrane polyspecificity reagent, FACS + sequencing; frameworks hold sequencing errors
# Summary of the method: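 A nanobody's polyreactivity label depends on the gate it was sorted from. Yeast display cells were stained with 10% biotinylated, detergent-solubilized Sf9 membrane reagent for 1 hour at 4 °C, enriched on streptavidin microbeads and sorted by FACS. The low and high (top ~1%) gates were set on anti-HA fluorescence for expression and streptavidin fluorescence for reagent binding.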
row,Sequence,polyreactivity (PSR sort gate)
1,QVQLVESGGGLVQAGGSLRLSCAASVSTFTFNDMGWSRQAPGKERELVAAITSGGSTTYADSVKGRFTISRDNAKNTVYLQMNSLKPEDTAVYYCAADYVYFYFYGYASWGQGTQVTVSS,low polyreactivity
2,QVQLVESGGGLVQAGGSLRLSCAASGRNLPSYAMGWYRQAPGKERELVAAISGSGGRTYYSDSVKGRFTISRDNAKNTVYLQMNSLKQEDTAVYYCAARQDDYGKINYYWGQGTQVTVSS,high polyreactivity
3,QVQLVESGGGLVQAGGSLRLSCAASGFIFGVYDMGWYRQAPGKERELVAAIDSVGSTYYADSVKGRFTISRDNAKNTVYFQMNSLKPEDTAGYYCNAARSRLYYVKYYYWGQGTQVTVSS,low polyreactivity
4,QVQLVESGGGLVQAGGSLRLSCASSGTFRLYAMGWYRQAPGKEREFVAAITSGGRTYADSVKGRFTISRDNAKNTVYLQMNSLKPEDTAVYYCAADAGRILFSGYDYWGQGTQVTVSS,low polyreactivity
5,QVQLVESVGGLVQAGGSIRLSCAASGRIIDVNAMGWYRQAPGKERELVAAIRSGGRTNYADSVKGRFTISRDNAKNTVYLQMNSLKPEDTAVYYCGAVVWSSLDDYWGQGTQVTVSS,high polyreactivity
6,QVQLVESGGGLVEGGGSLRLSCAASGFTFGRYTMGWYRQATGKERELVAAISWSGGSTYYADSVKGRFTISRDNAKNTVYLQLNSLKQEDTAVYNCATRLKSVSGGYNYWGQGTQVTVSS,high polyreactivity
7,QVQLVESGGGLVQAGGSLRLSCAASGSIFIANAMGWYRQAPGKERELVATISWSGGRTYYADSVKGRFTISRDNAKNTVYLQMNSLKPEDTAVYYCAAVYGAYDSGYKYNYWGQGTQVTVSS,high polyreactivity
8,QVQLVESGGGLVQAGGSLRLSCAASGSTFRYYVMGWYRQAPGKERELVARITSAASTNYADSVKGRFTISRDNAKNTVYLQMNSLNPEDTAVYYCAARKYGSRYRLKYDYWGQGTQVTVSS,high polyreactivity
9,QVQLVESGGGLDQAGGSLRLSCAASGNTFHPYAMGWYRQAPGKERELVAAITKSGGSTYYADSVKGRFTISRDNAKKTVYLQMNSLKPEDTAVYYCNADDGVTEYDYWGQGTQVTVSS,low polyreactivity
10,QVQLVESGGGLVQAGGSLRLSCAASGSIFYTYAKGWYRQAPGKQRELVAGISWSGSDTYYADSVKGRFTISRDNAKNTVYLQMNSLKPEDTAVYYCNAETSTRKNFGYDYWGQGTQVTVSS,low polyreactivity
11,QVQLVESGGGLVQAGGSLRLSCAASGRTFKLYAMGWYRQAPGKERELVAALSIRGTSTYYADSVKGRFTISRDNAKNTVYLQMNSLKPEDTAVYYCAAEDRYGYYLVRWQGYYYWGQGTQVTVSS,low polyreactivity
12,QVQLVESGGGLVQAGGSLRLSCAASGRTLNTYTMGWYRQAPGKERELVAAITWRGGRTYYADSVKRRFTISRDYAKNTVYLQMNSLKPEDTAVYYCAAVRRNKPVGYGYWGQGTQVTVSS,high polyreactivity
13,QDQLVESGGGLVQAGGSLRLSCAASGSTFKYYGMGWYRQAPGKERELVAAITSGGSTYDADSVKGRFTISRDNAKNTVYLQMNSLKPEDTAVYYCNTTAYSPTPYDYWGQGTQVTVSS,low polyreactivity
14,QVQLVESGGGLVQAGGSLRLSCAASGSIFQGYAMGWYRQAPGKERELVAGITSSGGRTRYADSVKGRFTISRDNAKNTVFLQMNSLKPEDTAVYYCAADYVRHIGYNYWGQGTQVTVSS,high polyreactivity
15,QVQLVESGGGLVQAGGSLRLSCAASGSTFGRYVMGWYRQAPGKERELVAAISYSGGRTYYADSVKGRFTISRDNAKNTVYLQMNSLKPEDTAVYYCNKGGIREYDYWGQGTQVTVSS,high polyreactivity
16,QVQLVESGGGLVQAGGSLRLSCAASGITFNSYAKGWYRQAPGKERELVASISWIGGSTYYADSVKLRFTISRDNAKNTVYLQMNSLKPEDTAVYYCAVDKGTDYYYEVDYWGQGTQVTVSS,low polyreactivity
17,QVQLVESGGGLVQAGGSLRLSCAASGRTFNSYAMGWYRQAPGKEWELVASISSGGSTYYADSVKGRFTLSRDNAKNTDYLQMNSLKPEDTAVYYCAAKSVAYYSYFRRDYWGQGTQVTVSS,low polyreactivity
18,QVQLVESGGGLVQAGGSLRLSCAASGRTIYSNAMGWYRQPPGKERELVAAITGSSGSTYYADSVKGRFTISRDNAKNTVYLQMNSLKPEDTAVYYCAASCYCSLVRQLRLRGQGTQVTVSS,low polyreactivity
19,QVQLVESGGGLVQAGGSLRLSCAASGFTFDHYAMGWYRQAPGKERELVARITGTGDSTYYADSVKGRFTISRDNAKNTVYLQRNSLKPEDTAVDYCNADRRYDFYDGYGYWGQGTQVTVSS,low polyreactivity
20,QVQLVDSGGGLVQAGGSLRLSCAASGRTFGKNVMGWYREAPGKERELVAAISLSGGSTYYADSVKGRFTISRDNAKNTVYLQMNSLKPEDTAVYYCAAAAYGKPWGLDYWGQGTQVTVSS,low polyreactivity
21,QVELVESGGGLVQAGGSLRLSCAASGITLRHYTMGWYRQAPGKVRELVATISRSGGRTYYADSVKGRFTISRDIAKNTVYLQMNSLKPEDTAFYYCARQFWRHWYGYWGQGTQVTVSS,high polyreactivity
22,QVPLVESGGGLVQAGGSLRLICAASGRIFYRYAMVWYRQAPGKERELVATISRSGGSTNYADSVKGRFTISRDNAKNTVYLQMNSLKPEDTAVYYCNARYLSTRSGDYWGQGTQVTVSS,high polyreactivity
23,QVQLVESGGGLVQAGGSLRLSCAASGSTFQINAMGWYRQAPGKERELVAAIDGGGDTYYADSVKGRFTISRDNAKYTVYLQMNSMKPEDTAVYYCAAERRIYYQDFNFWGQGTQVTVSS,low polyreactivity
24,QVHLVESGGGLVQAGGSLRLSCAASGFTFNWYAMGWYRHAPGKERELVAAINSSGGNTYYADSVKGRFTISRDNAKNTVYLQMNSLKPEDTAVYYCAALLWGYVAFDYWGQGTQVTVSS,high polyreactivity
25,EVQLVESGGGLVQAGGSLRLSCAASGFTFSYNAMGWYRQAPGKERELVAAIDWGGGSTYADSVKGRFTISRDNAKNTVYLQMNSLKPEDTAVYYCAAYIPSSGRNPEIGVEYDYWGQGTQVTVSS,low polyreactivity
26,QVQLVESGGCLVQAGGSLRLSCAASGFTFHNNVMGWYRQAPGKDRELVATISKSGGSTYYADSEKGRFTISRDNAKNTVYLQMNSLKPEDTAVYYCDRRYRYYGRYGYWGQGTQVTVSS,high polyreactivity
27,QVQLVESGGGLVQAGGSLRLSCAASGFIITSYAMGWYRQAPGKERELVAAIRRTGGTYYADSVKGRFTISRDNAKNTVYLQMNSLKPEDTAVYYCNTRLSYRNRGFDYWGQGTQVTVSS,high polyreactivity
28,QVQLVESGGGLVQAGGSLRLSCAASGSIFYANAMGWYRQAPGKERELVAAISRSGGRTYYADSVKGRFTISRDNAKNTVYLQMNSLKPEDTAVYYCNAVYVSYTYQQTRSGGYDYWGQGTQVTVSS,high polyreactivity
29,QVQLVESGGGLVQAGGSLRLSCAASGSTLGYYTMGWYRQAPGKERELVAAISYGGGSTYYADSVKGRFTISRDNAKNTVYLQMNSLKPEDTAVYYCAARWGKSWRGYGYWGQGTQVTVSS,high polyreactivity
30,QVHLVESGGGLVQAGGSLRLSCAASGIIFYFYTMGWYRQAPGKERELVAAISSSGGRTFYADSVKGRFTISRDNAKNTDYLQMNSLKPEDTAVYYCAAAHTREYYWGQGTQVTVSS,high polyreactivity
